Legend:
HCV = settings: cited from earlier work
[1] = test system: recombinant E2 protein binding to CD81 expressed in Jurkat cells; test: Inhibition of binding of recombinant E2 protein to Jurkat cells (FACScan); type: cell-based, HCV; settings: 1 μg recombinant E2 protein preincubated with 10 μL of 1 mg/mL solution, room temperature 1 hour; FIG. 14
Description: An oligopeptide capable of binding to HCV E2 antigen is reacted with the HCV E2 antigen to study whether or not binding of CD81 expressed in Jurkat cells purchased from DAINIPPON PHARMACEUTICAL CO., LTD. to the HCV E2 antigen is inhibited. By the study, whether or not the selected oligopeptide inhibits adhesion of the HCV E2 antigen to CD81-positive cells can be estimated. The inhibitory activity for adhesion of CD81 to the IICV E2 antigen was assayed in accordance with the literature. The concrete description will be given hereinbelow.
The Jurkat cells were prepared in the same manner as in item (1), and suspended in WB so as to have a concentration of 4×10^6 cells/mL, to give a Jurkat cell suspension. […]
Hereinafter, in the same manner as in the item (1) above, the resulting product was reacted with an FITC-labeled anti-mouse IgG1 antibody, and thereafter the reaction mixture was suspended in 0.2 mL of a 10% neutral buffered formalin solution. As to the resulting product, E2 protein bound to Jurkat cells was analyzed by using FACScan.
One microgram of the recombinant E2 protein, and 10 μL of the TAPA148, bLF or bLF443 solution obtained in item (4) above were added to a 6 mm rounded-bottom tube and, and WB was then added thereto, to give 50 μL of a mixture. […] As to the resulting suspension, E2 protein bound to Jurkat cells was analyzed by using FACScan.

Row | Molecule | amount of virus in blood (HCV) | binding to HCV (HCV; lactoferrin contained in breast milk) | inhibitory action of binding of E2 protein to Jurkat cells [1]
1 | lactoferrin: lactoferrin contained in breast milk (protein, UniProt P02788 20-710, looked up) Lactotransferrin: GRRRSVQWCAVSQPEATKCFQWQRNMRKVRGPPVSCIKRDSPIQCIQAIAENRADAVTLDGGFIYEAGLAPYKLRPVAAEVYGTERQPRTHYYAVAVVKKGGSFQLNELQGLKSCHTGLRRTAGWNVPIGTLRPFLNWTGPPEPIEAAVARFFSASCVPGADKGQFPNLCRLCAGTGENKCAFSSQEPYFSYSGAFKCLRDGAGDVAFIRESTVFEDLSDEAERDEYELLCPDNTRKPVDKFKDCHLARVPSHAVVARSVNGKEDAIWNLLRQAQEKFGKDKSPKFQLFGSPSGQKDLLFKDSAIGFSRVPPRIDSGLYLGSGYFTAIQNLRKSEEEVAARRARVVWCAVGEQELRKCNQWSGLSEGSVTCSSASTTEDCIALVLKGEADAMSLDGGYVYTAGKCGLVPVLAENYKSQQSSDPDPNCVDRPVEGYLAVAVVRRSDTSLTWNSVKGKKSCHTAVDRTAGWNIPMGLLFNQTGSCKFDEYFSQSCAPGSDPRSNLCALCIGDEQGENKCVPNSNERYYGYTGAFRCLAENAGDVAFVKDVTVLQNTDGNNNEAWAKDLKLADFALLCLDGKRKPVTEARSCHLAMAPNHAVVSRMDKVERLKQVLLHQQAKFGRNGSDCPDKFCLFQSETKNLLFNDNTECLARLHGKTTYEKYLGPQYVAGITNLKKCSTSPLLEACEFLRK | reduces an amount of virus in blood | binds to HCV | 
2 | bLF: bovine lactoferrin protein (SERVA Electrophoresis GmbH) (protein, UniProt P24627 20-708, looked up) Lactotransferrin: APRKNVRWCTISQPEWFKCRRWQWRMKKLGAPSITCVRRAFALECIRAIAEKKADAVTLDGGMVFEAGRDPYKLRPVAAEIYGTKESPQTHYYAVAVVKKGSNFQLDQLQGRKSCHTGLGRSAGWIIPMGILRPYLSWTESLEPLQGAVAKFFSASCVPCIDRQAYPNLCQLCKGEGENQCACSSREPYFGYSGAFKCLQDGAGDVAFVKETTVFENLPEKADRDQYELLCLNNSRAPVDAFKECHLAQVPSHAVVARSVDGKEDLIWKLLSKAQEKFGKNKSRSFQLFGSPPGQRDLLFKDSALGFLRIPSKVDSALYLGSRYLTTLKNLRETAEEVKARYTRVVWCAVGPEEQKKCQQWSQQSGQNVTCATASTTDDCIVLVLKGEADALNLDGGYIYTAGKCGLVPVLAENRKSSKHSSLDCVLRPTEGYLAVAVVKKANEGLTWNSLKDKKSCHTAVDRTAGWNIPMGLIVNQTGSCAFDEFFSQSCAPGADPKSRLCALCAGDDQGLDKCVPNSKEKYYGYTGAFRCLAEDVGDVAFVKNDTVWENTNGESTADWAKNLNREDFRLLCLDGTRKPVTEAQSCHLAVAPNHAVVSRSDRAAHVKQVLLHQQALFGKNGKNCPDKFCLFKSETKNLLFNDNTECLAKLGGRPTYEEYLGTEYVTAIANLKKCSTSPLLEACAFLTR |  |  | inhibitory action of binding of the E2 protein

Reference: patent publication US20030171276A1, “Preventives and remedies for chronic hepatitis” (priority 1999, published 2003)
